Laboratory results taken from the supplement of paper PMC10567573.
± gives the standard deviation.

Assay: protein stability index of a GFP-peptide fusion (GPS, HEK-293T) (PSI 1-6); higher = more stable
Settings: c terminus: a fixed tail appended
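Also: 24-mer peptide tiles fused after GFP, lentivirally expressed, FACS-sorted into six equal bins by GFP/DsRed ratio, decoded by Illumina sequencing, PSI is the read-weighted mean bin number.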

Sequence	protein stability index (treatment: DMSO)	protein stability index (treatment: MLN4924 1 uM, 8 h)
REEEERERLQKEEEKRRREEEERL [ACBD3]	5.5 ± 0.35	5.74 ± 0.21
TSNGWGVTDCKHTEDVGVVCSDKR [LOXL2]	4.57 ± 0.092	4.46 ± 0.41
ELFRIGGKSPDTNYLFMGDYVDRG [PPP2CA]	2.49 ± 0.39	2.48 ± 0.11
LNATSKFMEFYQDVKDWWLFGFYF [EDNRA]	2.49 ± 0.86	2.13 ± 0.37
GKETLTPSELRDLVTQQLPHLMPS [S100A14]	3.94 ± 0.65	3.99 ± 0.12
LKKKHQLLEDARRKGMPFAQWDGP [PPFIA4]	3.11 ± 0.37	3.31 ± 0.14
PELTPEEEQATKQFLEEINKWTVQ [PTPN9]	5.01 ± 0.23	4.86 ± 0.12
CMYRHALPPGFVLKKDKKKEEKED [ZC3H15]	4.58 ± 0.21	4.67 ± 0.15
SNGSMHNYCPQQTKITSAFKYINT [EDNRA]	2.36 ± 0.35	2.6 ± 0.26
LPQDEGGGGYSSVRYSDCCERVVI [KCNA4]	2.41 ± 0.3	2.77 ± 0.53
EEEEGEEEELIRIFQEQQKKWQQY [FAM9B]	4.02 ± 0.23	4.13 ± 0.28
AQAQALAAQAAAAAHAAQAHRERN [PI4K2A]	4.9 ± 0.076	4.8 ± 0.12
IVDIKPANMEDLTEVITASEFHPH [PPP2R2C]	3.92 ± 0.28	3.9 ± 0.41
RPQSAQSSFPPSPGPSPDVQLATL [AUP1]	4.34 ± 0.44	4.34 ± 0.47
IPAFCELPLDDQVALLRAHAGEHL [HNF4A]	2.88 ± 0.26	3.22 ± 0.33
GAAEEARRLEQRWGFGLEELYGLA [ACBD3]	2.77 ± 0.37	2.99 ± 0.12
WALLCLGLLLPGGGAAWSIGAAPF [EMID1]	3.54 ± 0.26	3.22 ± 0.19
LRVMETKPDKAVSIIECDMNVDFD [UFD1]	3.57 ± 0.43	3.53 ± 0.28
TTEKQRLVKKLQDSVLERWVNDPQ [GOLPH3L]	3.71 ± 0.25	4.05 ± 0.076
EPEKIYAMPDPTVPDSDIKALTTL [ESRRG]	4.46 ± 0.15	4.6 ± 0.2
RGREAGPPQPMVPLAVENQAGGEG [PBXIP1]	5.27 ± 0.38	5.25 ± 0.16
QLAQLRCEMEQQSQEYQILLDVKT [KRT16]	3.34 ± 0.076	3.55 ± 0.28

Sequence	protein stability index (treatment: DMSO)	protein stability index (treatment: MLN4924 1 uM, 8 h)
SNADQLMENIGAIQVLPKLSSSII [KCNAB2]	3.21 ± 0.38	3.23 ± 0.29
LRKKILKIRHGWEDVTKINKTEIC [STEAP1]	2.29 ± 0.47	2.56 ± 0.48
QEAPLQDDSCLNNDIPHSIPLEQG [FAN1]	5.25 ± 0.34	5.27 ± 0.17
SPSNVQKWLLWTEHQYRLPPMGKA [SPDEF]	2.42 ± 0.2	2.61 ± 0.19
MECPEGQLPISSENDSTPTVSTSE [TAF7L]	5.46 ± 0.12	5.59 ± 0.25
GRPPDPADWAVMDVVNYFRTVGFE [SAMD13]	2.57 ± 0.25	2.78 ± 0.3
GESFPAQVPSGEDQTALSLEECLR [NFE2L1]	5.08 ± 0.89	5.15 ± 0.076
VILFSSAVYFAEADDPTSGFSSIP [KCNA3]	3.01 ± 1.6	2.56 ± 1.1
PVSGKAVFMEFGPPNQQMSPSPMS [DLX1]	3.5 ± 0.26	3.55 ± 0.41
ICRVFSTSPAKDSLSFEDFLDLLS [CIB1]	2.34 ± 0.25	2.2 ± 0.1
FCLLSCGILTFLAVLGRYVPGLLL [RETREG3]	2.36 ± 0.32	2.09 ± 0.23
MISAAQLLDELMGRDRNLAPDEKR [LUC7L3]	3.87 ± 0.19	4.11 ± 0.21
VKLPLPAERVTLADFKGVLQRPSY [DVL3]	2.5 ± 0.19	2.73 ± 0.36
DCDTSSICEDSFDGRSLSKLNLCE [SCARA5]	4.84 ± 0.16	5.05 ± 0.12
EHKGWYSWVLSMLYGFLLTFGFIT [CLPTM1]	2.4 ± 0.56	2.62 ± 0.37
YQQIKAGAYDFPSPEWDTVTPEAK [CAMK2B]	3.89 ± 0.34	4.15 ± 0.32
TGGVTALCWDPVQRVLFSGSSDHS [WDFY2]	2.73 ± 0.21	2.78 ± 0.59
CKVGASSDPCGQLRPTLLLTSLHH [PNLIPRP1]	2.1 ± 0.24	2.22 ± 0.097
TIDNDIVSMEIFFKAWLHNSGTDQ [M1AP]	2.5 ± 0.23	2.36 ± 0.084
GYSDRDGYGRDRDYSDHPSGGSYR [RBMX]	4.6 ± 0.31	4.81 ± 0.45
LEEFKENAYKDLAWKHGNIHLSAP [PCMTD2]	3.33 ± 0.26	3.81 ± 0.12
RDAIEALCRRLNTLNKCAVMKLEI [DLC1]	2.13 ± 0.49	2.54 ± 0.17

Sequence	protein stability index (treatment: DMSO)	protein stability index (treatment: MLN4924 1 uM, 8 h)
LHAWQINWPARQRGTHAVVGVATA [SPSB4]	2.39 ± 0.25	2.31 ± 0.21
DYIMDEDQSKLAGLLDLNNAILQL [ESRRG]	2.35 ± 0.25	2.6 ± 0.39
GLANSSRVRGRVGTIRPVRCPSSS [C22orf15]	4.12 ± 0.14	4.23 ± 0.21
DNLLQEMLLGGSPSDAPHAHHPLH [HNF4A]	3.97 ± 0.49	4 ± 0.14
IRERILGPSHPDTSYYIRYRGAVY [FEM1C]	2.22 ± 0.27	2.1 ± 0.34
GTPSPSRSRDSNSGPEEPLLEEEE [RTN2]	5.49 ± 0.24	5.72 ± 0.27
WEASSLGLVTAALHMVIVAAFTWA [KMT2E]	3.44 ± 0.31	3.16 ± 0.74
FDEKIVPILKRKLPGSDVSGRLMG [FBXO28]	2.75 ± 0.48	3.48 ± 0.47
AMCVRYDGVEVDDSYCDALTRPEP [ADAMTSL2]	4.37 ± 0.33	4.31 ± 0.28
QERSRVLNQVADLLEQSLEEFAQA [ALDH8A1]	3.94 ± 0.28	4.26 ± 0.19
CSTTDHPYKKPYMETSPSEEDSFY [TBX5]	4.34 ± 0.13	4.31 ± 0.2
TDLIWKNQNSWGTGEDVKVILKNS [LMNB1]	3.47 ± 0.44	3.74 ± 0.26
EECPAHLLEDPLCADVILVLQERV [RHOBTB2]	3.4 ± 0.42	3.47 ± 0.52
EYLIRLFQEWEAHRNLSQLPNFAF [TCF25]	2.32 ± 0.7	2.39 ± 0.24
EPYPSQLLKPIPEYSPEEESEPPA [TRAF3IP2]	5.45 ± 0.12	5.66 ± 0.18
LDAVENQLKWASWELHSLRHCDDD [ZNF24]	3.96 ± 0.12	4.03 ± 0.15
QYLAERYKVNTPMLQSFINYCLLF [SLC35F2]	2.58 ± 0.6	2.64 ± 0.53
VLRTYLELVLCVLVSIRNNRNLQK [FBXO33]	2.96 ± 0.71	2.64 ± 0.51
GCQLDLRYADLEAVNRARRPLARP [RHOBTB1]	3.07 ± 0.12	3.16 ± 0.28
KAILDAEPGPRPALQPSPSIRLPL [TBC1D10A]	4.27 ± 0.15	4.34 ± 0.059
LCDGNPRRPSPVLRHLELLDEFAR [SCNN1D]	3.26 ± 0.087	3.53 ± 0.26
